Laboratory results: patent US20240252601A1

Key:
Assay in all cases: cell-based or functional assay
[1] = target: SARS-CoV2 Spike, Omicron BA.4/BA.5 variant (on pseudovirus) (SARS-CoV2)
[2] = target: SARS-CoV2 Spike, Omicron BA.4.6 variant (on pseudovirus) (SARS-CoV2)
[3] = target: SARS-CoV2 Spike D614G (on pVSV-Luc-SARS-CoV2-S pseudovirus) (SARS-CoV2) (UniProt P0DTC2)
[4] = target: SARS-CoV2 Spike, Omicron BA.2 variant (on pseudovirus) (SARS-CoV2)
[5] = target: SARS-CoV2 Spike, Omicron BA.2.12.1 variant (on pseudovirus) (SARS-CoV2)
[6] = target: SARS-CoV2 Spike, Omicron BA.1 variant (on pseudovirus) (SARS-CoV2)
[7] = target: SARS-CoV2 Spike, Omicron XBB1.5 variant (on pseudovirus) (SARS-CoV2)

ACE2 (615/615)-IgG-Fc, sequence (Q9BYF1 18-615 limits assumed): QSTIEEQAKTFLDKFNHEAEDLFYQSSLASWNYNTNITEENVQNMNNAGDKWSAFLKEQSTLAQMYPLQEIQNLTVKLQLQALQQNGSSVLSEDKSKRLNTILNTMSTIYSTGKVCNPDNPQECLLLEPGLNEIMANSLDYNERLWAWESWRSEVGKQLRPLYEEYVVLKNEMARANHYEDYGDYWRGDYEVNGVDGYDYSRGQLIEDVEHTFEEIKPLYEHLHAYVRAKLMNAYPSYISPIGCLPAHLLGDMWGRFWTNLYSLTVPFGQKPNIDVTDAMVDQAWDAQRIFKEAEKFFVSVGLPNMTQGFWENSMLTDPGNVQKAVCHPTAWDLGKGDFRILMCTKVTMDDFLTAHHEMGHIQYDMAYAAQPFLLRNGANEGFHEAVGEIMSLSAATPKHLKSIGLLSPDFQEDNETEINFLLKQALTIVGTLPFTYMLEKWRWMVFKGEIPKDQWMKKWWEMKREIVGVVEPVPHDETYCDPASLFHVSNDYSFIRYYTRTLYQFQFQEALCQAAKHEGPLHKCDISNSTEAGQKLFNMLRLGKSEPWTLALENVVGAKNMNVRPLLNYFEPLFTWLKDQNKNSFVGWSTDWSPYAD
ACE2 (615/615)-IgG-Fc, sequence (Q9BYF1 18-615 limits assumed): as above

Substance	Fold reduction from against D614G [1] [fold]	IC50 [M], neutralization [1] [M]	Fold reduction from against D614G [2] [fold]	IC50 [M], neutralization [2] [M]	Fold reduction from against D614G [3] [fold]	IC50 [M], neutralization [3] [M]	Fold reduction from against D614G [4] [fold]	IC50 [M], neutralization [4] [M]	Fold reduction from against D614G [5] [fold]	IC50 [M], neutralization [5] [M]	Fold reduction from against D614G [6] [fold]	IC50 [M], neutralization [6] [M]	IC50 [M], neutralization [7] [M]
ACE2 (615/615)-IgG-Fc (from UniProt Q9BYF1 18-615; Q9BYF1 18-615) (Fc fusion)	11.6	6.17e-11	6.32	3.35e-11	19.4	1.03e-10	3.51	1.86e-11	2.32	1.23e-11	1.25	6.61e-12	–
ACE2 v2.4 (615)-Fc (x2), second row of this label in Table 6 (Fc fusion)	317	1.68e-09	343	1.82e-09	515	2.73e-09	515	2.73e-09	468	2.48e-09	240	1.27e-09	–
REGEN-COV (REGN10933+REGN10987)	–	–	–	–	–	5.2e-12	–	–	–	–	–	–	> 2e-08
